In the supplement of paper PMC12042874:
± gives the uncertainty stated by the source.

Experiment: amyloid nucleation score (Sup35N fusion, yeast selection) (log enrichment); library NNK1; higher = more nucleation; inactive = no reads after selection
Summary of the method: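 Three technical output replicates were used for random libraries. Psi-negative yeast expressing peptides of 20 random codons fused to Sup35N were induced with 100 μM copper sulfate for 24 hours and grown 7 days at 30°C on medium lacking adenine and uracil, and input and output plasmid inserts were Illumina-sequenced, excluding sequences with under 100 input reads. The nucleation score is the DiMSum log enrichment of output over input reads, centred on the mode score of non-aggregating sequences.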

Substance | amyloid nucleation score
STFWENIIVFFHGPYHDMHT | -0.647 ± 0.69
LGCFGIAATKIRKVDMRLGG | 0.729 ± 0.39
RGVYVWKGSSLH | -0.377 ± 1.1
LYNPFHIRESMRSRPLVRWV | -0.1 ± 0.32
LKRDVTSVSGY | 0.348 ± 0.38
IYNTYPTRRLRLQRGYYSME | -0.607 ± 1.5
CKGFK | inactive
SSPSMSINVYRLNKS | inactive
QPKFLVCFA | 0.101 ± 0.6
NSPGYDQVNAYVGFKRRTMS | 0.128 ± 0.64
YSHFEQYMDNFNIMNYDYRD | -0.879 ± 1.2
FVNFGFAGIASWHFVLMFIK | 0.1 ± 0.27
YTCYIVKGLVVLTVACGG | -0.225 ± 0.98
FGSMLNGVRYQ | 0.747 ± 0.66
CDLLRSLTVS | 0.946 ± 0.6
ALMDTCSVSSARGHDPCNRP | -0.413 ± 0.78
FGHKPCLATQLTGPTKRCAA | 0.959 ± 1.1
FGVYLACIHRKVLECDR | -0.241 ± 1
AMYHLGQSSLLYSRPFNSTK | -0.595 ± 1.6
LFDVYN | -0.549 ± 0.49
SCTFKMMMGSVLL | 4.45 ± 0.067
KFFEFLYKFDPCRRYCRLCQ | 0.264 ± 0.36

Substance | amyloid nucleation score
QYVIQAYACTWCRCGKLQSG | 7.693 ± 0.065
FLKLFHLRGFLYG | inactive
TRTLLNVHCCPSVW | 6.614 ± 0.054
IKYLSYDVNPPLWFVYNFSF | 6.29 ± 0.084
KQECQYCWSG | -1.15 ± 0.36
LRTKSLWSF | -0.515 ± 0.59
GRKIDCGRLIMIAVRCNQVA | 0.358 ± 0.41
YSNSGMGNV | 0.568 ± 0.21
YQDVVDSDD | -0.762 ± 0.64
LSLILFVCRIYTYSCSHRAL | 0 ± 0.36
HVLMIRWLWWGISRACKNSR | -0.193 ± 1.6
LSVIIII | 4.96 ± 0.051
NGFCEVDIVLFRVEVVAACV | -0.965 ± 2.4
LSWVQSLKACNI | 1.45 ± 0.4
GNVFRLWLNM | 0.369 ± 0.38
LDRAVHPGVVSPWSQVTRTM | 0.749 ± 0.38
LCTRFWDTMYLSSGYFGFLC | 1.03 ± 0.46
SESKGHHKCRRALLYRGM | 0.418 ± 1.2
LVWLY | 0.493 ± 0.68
HRIWRLLALNT | -0.583 ± 0.54
MFSTKSH | 0.543 ± 0.49
MWGTCSYSYLDSCRVTLFMR | 2.06 ± 0.2

Substance | amyloid nucleation score
SNIREPDFRCIGLATF | 0.523 ± 0.7
GVCVEFCLRGSRFWLMKNKA | 0.383 ± 0.84
FCVTNPWS | 0.308 ± 0.58
KCTWTN | 0.255 ± 0.87
HHCHSSGL | 0.981 ± 0.93
YIYRDTYLRTPKLGSHMYCL | inactive
YVIRFVKCR | 2.23 ± 0.55
ALRNCQNMRPYKTPVRPTVA | 1.34 ± 0.71
GVSVSYLDGGMAWPNEGGRK | 0.19 ± 0.62
NLNFAAPKGGV | -0.735 ± 2.4
ECMVYDYNYWVHVYGITYCC | 0.242 ± 0.35
CSSFAQ | 0.549 ± 0.31
TFKKWMRIVYNLISKLKSRH | 2.98 ± 0.081
ENDVNDLRSPLDNQYLSRLP | inactive
LKLGYMNLLISDRCAVIERY | 0.969 ± 0.81
DWRMWGF | -0.865 ± 0.69
CDNSLDSIWFVSVSWN | 1.16 ± 0.69
WSGFQCSQDEWNLSMTIVRA | -0.097 ± 0.78
TGYLIYSSWC | 0.146 ± 0.4
DPICYKRNKANVYLGRFGYR | 0.7 ± 0.66
FMATNTKAMGPLRSAK | 0.224 ± 0.58
LLESFTG | -0.392 ± 0.46

Substance | amyloid nucleation score
VLGYSRPLSDTSSVGTIIPA | 0.172 ± 0.38
GFGLVRIPIMFNEAPEVVSK | -0.133 ± 0.46
ASRSCIVSRRASGPHVCCQV | 0.098 ± 0.91
DCNLSSYLVYWAFHYDKLMS | 0.083 ± 0.58
YRFRWRNWSMWVSHKAHKAS | 0.851 ± 0.74
RGFNVVHGGELRRMLMTEGD | 0.926 ± 0.43
PGLFYETDHVASVVVCKSPH | -0.231 ± 0.45
PNFWVRFKYGYLSSLNSRTV | -0.375 ± 0.52
LCLILVGSY | 0.062 ± 0.79
GGFFICQGDTRVV | 0.222 ± 0.58
RFVLWYYDY | 3.12 ± 0.076
NWRSTLVSCLVYLPVLCCRC | 5.31 ± 0.058
FCSDFKSEYSIWDYWVWHKV | -0.306 ± 0.37
LLDVLMDGRFSFVQRYCRAD | 1.05 ± 0.2
KWYGILNVVDDRRSIGRYDM | -0.281 ± 0.58
TRRDNVPQHNLGVTLLMVRE | -1.29 ± 2.7
SVIYHRCLFLI | 6.906 ± 0.048
FGMSRW | 0.166 ± 0.78
YEGELTSKKFFAQVNSRVGG | -0.581 ± 1.4
MYTSRQNSARNRKLNSIAGF | -0.721 ± 0.77
SIFRTKTTFLRNVQLEWLGG | -0.211 ± 0.86
QDRPYVFY | -0.331 ± 0.44

Substance | amyloid nucleation score
NCFLCSVARNNYVLRCPSSN | 6.07 ± 0.067
GFTSHFRYLWHILIRYWSNP | 0.442 ± 0.39
GLCYNEVDAVASGESGDDRG | -0.376 ± 0.45
TSPYDSNGLFAMLAELHFYS | 0.082 ± 0.78
WVINFVGKTCDTIDP | inactive
VSWYSSVIKL | inactive
WPIRVMMGYRLLGMDRNVFG | 0.129 ± 0.68
DCDRYNGLCHLCCIQWHL | 1.56 ± 0.33
FVSTVYLY | 5.35 ± 0.064
SYFKCMIILSRMLLVVLEI | -0.272 ± 0.65
CTDSEAKGCDFFGRISVNVY | 0.689 ± 0.73
KANPDHIPRRLDYRGSGPSR | -0.482 ± 0.94
TQRTAFRGR | 0.203 ± 0.75
FNLRKRRA | 0.205 ± 0.38
YTYVSMPGR | -0.358 ± 0.34
QNWMPRHLTITLNDIRLYL | 4.95 ± 0.12
YYLSCNDSKGYSMRQFMYDV | -0.139 ± 0.81
YDAIYV | 0.368 ± 0.63
LATGHVFYGFG | -0.116 ± 0.36
RSVMVMLPS | 0.022 ± 0.37
VLTVAGF | -0.561 ± 0.44
PRPQLPVKYLYSRLIGETCG | 3.25 ± 0.071

Substance | amyloid nucleation score
GLQSKV | -0.974 ± 2.4
KGAIPFSSDCGGLSGLILYC | 0.301 ± 0.54
LLNFFK | 0.609 ± 1.1
FNSRAICGEIVNIPHQSPGD | 1.16 ± 0.67
YLDCIYRGKIISIHTGSGIL | -0.449 ± 0.29
IECMAMCHSVRSCCGSIYDC | -0.422 ± 0.38
ELIIRTRLAVEELLMKACFV | -0.498 ± 0.39
ARWKKQWFYT | 0.796 ± 0.58
FHLSDGDWYCHVESVTWRAC | 0.375 ± 0.87
RMYWVDFAGLFIDCL | inactive
SRNAVVVVVQTYMDMTSCNT | 6.37 ± 0.068
IYGCTCVDFGLSSNS | -0.46 ± 0.84
DRYIREISNTATCFALLL | 4.29 ± 0.083
MPCFCYTCGRVMLVRIRQTR | inactive
VVLWLVDFPSPCPELKNLHF | inactive
YVGSRSAVNIGIICGSRLNE | -0.739 ± 1.5
MERYCN | -0.148 ± 0.23
GSQMYNVHVVCVT | 0.154 ± 0.73
VYLWGPKVYRSDWMGRHFK | 0.855 ± 0.72
VWYFISTYCWDRPKVILSGV | -1.39 ± 1.9
ILKALF | 1.53 ± 0.8
